According to US20240124556A1, “KERATIN BD-3, PREPARATION METHOD THEREFOR AND PHARMACEUTICAL COMPOSITION AND USE THEREOF” (INSTITUTE OF MATERIA MEDICA, CHINESE ACADEMY OF MEDICAL …, priority 2019, published 2024):

System: yeast-induced fever model in SD rats
Test: Yeast-induced fever model of SD rats
Format: in vivo
Details: for Body temperature 2 hours after modeling / Body temperature 8 hours after modeling / Body temperature 4 hours after modeling / Body temperature 6 hours after modeling: 20% yeast s.c.; for Body temperature 2 hours after modeling: model group 37.5 ± 0.1; for Body temperature 8 hours after modeling: model group 37.6 ± 0.1; for Body temperature 4 hours after modeling / Body temperature 6 hours after modeling: model group 37.7 ± 0.1
Description: • Animals: 230-260 grams of male SD rats; • Medicines: yeast (OXOID LP0021), aspirin (SIGMA A2093), protein BD-3; • Instruments: electronic balance (SARTORIUS BP121S type), electronic clinical thermometer (CITIZEN CT-513W type). • Experiment grouping: • Normal control group; • Model group: yeast fever model; • Positive control group: Aspirin 300 mg/kg group; • Protein BD-3, 10 mg/kg group, 50 mg/kg group. • Method:
Preparation of experimental animals: After the experimental animals adapt to the experimental environment (temperature 22° C.±2° C., relative humidity 50%±2%) for 1 day. Pre-adaptation to measure rectal temperature at 8:00 and 15:00, rats were fasted and water was taken freely 12 h before experiment, and let the animal to empty its feces before measuring the rectal temperature. Apply petroleum jelly to the electronic thermometer probe before each temperature measurement. Insert the rat rectum 2 cm (can be marked at 2 cm to ensure that the depth of each insertion is consistent), and record the body temperature after the reading is stable.
Subcutaneous injection of dry yeast to replicate rat fever model: The body temperature of the rats was measured before modeling. Qualified rats with a body temperature of 36.2-37.3° C. were selected and randomly divided into groups with 8 rats in each group. After oral administration of aspirin and different doses of protein BD-3, 20% yeast suspension (10 ml/kg) was injected subcutaneously immediately, and the normal control group was injected intraperitoneally with an equal volume of normal saline. The body temperatures of the rats were monitored after 2 hours for a total of 8 hours.
According to the body temperature measured at each time point on the day of the experiment, calculate the mean, standard deviation and standard error of the body temperature of each group of rats. The data of each group was compared with TTEST, and P<0.05 was considered as a significant difference.

B1: BD-3: recombinant keratin, amino acid sequence SEQ ID NO:1, expressed in E. coli, band around 43 kD; tested material prepared in Example 4 (protein, listed as Bos taurus)
chain: MSYSCCLPNLSFRSSCSSRPCVPSSCCGTTLPGACNIPANVGSCNWFCEGSFNGSEKETMQFLNDRLASYLEKVRQLERDNAELESRILERSQQKILANKAENARLVVQIDNAKLAADDFRTKYQTELGLRQLVESDINGLRRILDELTLCKSDLEAQVESLKEELICLKQNHEQEVNTLRSQLGDRLNVEVDAAPTVDLNRVLNETRAQYEALVETNRRDVEEWYIRQTEELNKQVVSSSEQLQSYQAEIIELRRTVNALEVELQAQHNLRDSLENTLTETEARYSCQLAQVQGLIGNVESQLAEIRSDLERQNQEYQVLLDVRARLECEINTYRGLLDSEDCKLPCNPCATTNASSVGSCVTNPCTPCGPRSRFGPCNTFGC
**Q.** Which results are given for B1?
**A.** Body temperature 2 hours after modeling (BD-3 10 mg/kg oral): 37.0 ± 0.2 °C; Body temperature 8 hours after modeling (BD-3 10 mg/kg oral): 37.4 ± 0.1 °C; Body temperature 4 hours after modeling (BD-3 10 mg/kg oral): 37.3 ± 0.1 °C; Body temperature 6 hours after modeling (BD-3 10 mg/kg oral): 37.4 ± 0.1 °C; Body temperature 2 hours after modeling (BD-3 50 mg/kg oral): 36.9 ± 0.1 °C; Body temperature 8 hours after modeling (BD-3 50 mg/kg oral): 37.3 ± 0.1 °C; Body temperature 4 hours after modeling (BD-3 50 mg/kg oral): 37.2 ± 0.1 °C; Body temperature 6 hours after modeling (BD-3 50 mg/kg oral): 37.4 ± 0.1 °C; Effect on body temperature of model rats (in words) (different doses of BD-3 (10 mg/kg, 50 mg/kg), at 2 hours and 4 hours after modeling, P<0.05 vs model group): can significantly inhibit the increase in body temperature of model rats; Summary: antipyretic effect in yeast fever model (in words) (summary statement, no dose given): can significantly inhibit the increase in body temperature at 2 hours and 4 hours after modeling
